# Experimental data taken from PMC3048872, “The Regulatory Subunit of PKA-I Remains Partially Structured and Undergoes β-Aggregation upon Thermal Denaturation” (PLoS ONE, 2011).
# B1: human RIα(92–381), regulatory subunit RIα of cAMP-dependent protein kinase (PKA), truncated form with the tandem CNB domains A and B (domain or fragment, UniProt P10644 92-381, looked up)
# chain: KGRRRRGAISAEVYTEEDAASYVRKVIPKDYKTMAALAKAIEKNVLFSHLDDNERSDIFDAMFSVSFIAGETVIQQGDEGDNFYVIDQGETDVYVNNEWATSVGEGGSFGELALIYGTPRAATVKAKTNVKLWGIDRDSYRRILMGSTLRKRKMYEEFLSKVSILESLDKWERLTVADALEPVQFEDGQKIVVQGEPGDEFFIILEGSAAVLQRRSENEEFVEVGRLGPSDYFGEIALLMNRPRAATVVARGPLKCVKLDRPRFERVLGPCSDILKRNIQQYNSFVSLSV
# notes: cAMP-dependent protein kinase type I-alpha regulatory subunit (RIα), human, residues 92-381, numbering according to Swiss-Prot P10644; lacks the N-terminal docking/dimerization domain; In the aggregation experiments the protein was thermally denatured; the self-association is that of the partly unfolded, non-native state; also called apo-RIα(92–381); wt RIα(92–381); source: E. coli BL21 (DE3) …
# Biological target: the molecule itself
# Assay: dynamic light scattering; thermally denatured RIα(92–381), soluble aggregates; 10 mM K-phosphate buffer, 50 mM KCl, pH 7.5; measured at 22 and 60°C
protein,measurement,value
B1,binding result,binds
